In patent US20140105889A1 (published 2014):
Positions count from the first letter of the chain named. Numbers in names are those of the source. One block for each binder: values may come before it.

What was measured:
[1] = molecular target: T1, human FcγRIIb (human, UniProt P31994 43-217, limits assumed); assay: ratio of this variant's SPR KD for FcγRIIaH to its KD for FcγRIIb
T1 construct: also called FcγIIB; hFcgRIIb
T1 sequence: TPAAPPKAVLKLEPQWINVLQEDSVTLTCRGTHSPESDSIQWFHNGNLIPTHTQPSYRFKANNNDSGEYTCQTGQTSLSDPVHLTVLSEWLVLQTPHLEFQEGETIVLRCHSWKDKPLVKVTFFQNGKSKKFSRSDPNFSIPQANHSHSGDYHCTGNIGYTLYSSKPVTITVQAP

[2] = molecular target: T2, human FcγRIIa type R (human, UniProt P12318 36-217); assay: SPR (Biacore), captured antibody, FcγR as analyte, 25 C
T2 construct: also called FcγRIIaR; FcγRIIa(R)
T2 chain: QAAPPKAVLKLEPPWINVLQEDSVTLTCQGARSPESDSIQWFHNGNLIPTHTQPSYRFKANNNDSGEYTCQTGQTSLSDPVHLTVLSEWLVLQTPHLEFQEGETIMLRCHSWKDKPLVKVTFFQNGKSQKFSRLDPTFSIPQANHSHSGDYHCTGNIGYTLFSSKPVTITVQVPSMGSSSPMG

[3] = molecular target: T1, human FcγRIIb; assay: ratio of this variant's SPR KD for FcγRIIaR to its KD for FcγRIIb
[4] = molecular target: T1, human FcγRIIb; assay: SPR KD for FcγRIIb of parent IL6R-B3/IL6R-L divided by that of this variant
[5] = molecular target: T3, FcγRIIIa type V (human, UniProt P08637 17-208, limits assumed); assay: SPR (Biacore), antibody captured on chip, FcγR as analyte, method of Example 14
T3 construct: Soluble analyte in Biacore; also called FcγRIIIaV; FcγRIIIa(V)

[6] = molecular target: T4, FcγRIIb (human, UniProt P31994 43-217, limits assumed); assay: as above
T4 construct: Soluble analyte in Biacore; also called FcgRIIb; FcγIIB
T4 sequence: T1 sequence

[7] = molecular target: T4, FcγRIIb; assay: SPR (Biacore); ratio against the parent IL6R-B3/IL6R-L
[8] = molecular target: T5, FcγRIIa type H (human, UniProt P12318 36-217); assay: SPR (Biacore), antibody captured on chip, FcγR as analyte, method of Example 14
T5 construct: Soluble analyte in Biacore; also called FcγRIIaH; FcγRIIa(H)
T5 sequence: T2 chain with R133H

[9] = molecular target: T6, mouse FcγRIV (mouse); assay: SPR (Biacore), antibody captured on Protein L, mouse FcγR as analyte, pH 7.4, 25 C
T6 construct: Bought soluble receptor; also called mFcgRIV; mFcgR IV

[10] = molecular target: T7, human FcRn (soluble human FcRn complexed with beta2-microglobulin) (human, UniProt P61769 21-119); assay: Biacore SPR, antibody captured on Protein L, human FcRn analyte, pH 7.0
T7 construct: Soluble human FcRn complexed with beta2-microglobulin; also called hFcRn

[11] = molecular target: T7, human FcRn (soluble human FcRn …); assay: as above; remark: listed apart in the source
[12] = molecular target: T7, human FcRn (soluble human FcRn …); assay: as above; remark: listed apart in the source
[13] = molecular target: T8, human FcRn (soluble human FcRn complexed with beta2-microglobulin) (human, UniProt P61769 21-119); assay: SPR (Biacore), pH 7.0, 25 C, antibody captured by Protein L, human FcRn as analyte
T8 construct: also called hFcRn

[14] = molecular target: T7, human FcRn (soluble human FcRn …); assay: Biacore SPR, antibody captured on Protein L, human FcRn analyte, pH 7.0; remark: listed apart in the source

T3 sequence (P08637 other isoform, or with tags, fused parts or gaps limits assumed): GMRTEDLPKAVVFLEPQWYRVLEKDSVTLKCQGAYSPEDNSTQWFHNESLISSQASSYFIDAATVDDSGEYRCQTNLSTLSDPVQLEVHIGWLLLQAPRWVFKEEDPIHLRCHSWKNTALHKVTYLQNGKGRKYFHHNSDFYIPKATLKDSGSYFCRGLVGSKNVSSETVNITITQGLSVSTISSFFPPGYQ
T6 sequence (A0A0B4J1G0 21-203): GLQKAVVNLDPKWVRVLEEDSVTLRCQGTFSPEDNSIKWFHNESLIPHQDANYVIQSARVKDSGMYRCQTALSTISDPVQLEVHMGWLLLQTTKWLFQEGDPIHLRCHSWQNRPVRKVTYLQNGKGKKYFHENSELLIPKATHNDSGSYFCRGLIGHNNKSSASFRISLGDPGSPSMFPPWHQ

- BINDING AMOUNT (RU) [9]: 138 RU
B9: antibody with VH3-IgG1-F424 heavy chain and L(WT)-CK light chain (antibody)
heavy: QVQLQESGPGLVKPSETLSLTCAVSGHSISHDHAWSWVRQPPGEGLEWIGFISYSGITNYNPSLQGRVTISRDNSKNTLYLQMNSLRAEDTAVYYCARSLARTTAMDYWGEGTLVTVSSASTKGPSVFPLAPSSKSTSGGTAALGCLVKDYFPEPVTVSWNSGALTSGVHTFPAVLQSSGLYSLSSVVTVPSSSLGTQTYICNVNHKPSNTKVDKKVEPKSCDKTHTCPPCPAPELLGGPKVFLFPPKPKDTLMISRTAEVTCVVVDVSHEDPEVKFNWYVDGVEVHNAKTKPREEQYNSTYRVVSVLTPLHQDWLNGKEYKCKVSNKALPAPIEKTISKAKGQPREPQVYTLPPSRDELTKNQVSLTCLVKGFYPSDIAVEWESNGQPENNYKTTPPVLDSDGSFFLYSKLTVDKSRWQQGNVFSCSVLHEALHYHYTQKSLSLSP
light: not shown
notes: copies: 2 + 2

- Kd [10]: 87 nM
B10: IgG1-F382 (antibody, name in EU numbering)
heavy: B9 heavy with K241S, A259V, V307A, T309A, P310V
light: not shown
notes: Fc variant of VH3-IgG1; copies: 2 + 2

- Kd [11]: 16 nM
B11: IgG1-F357 (antibody, name in EU numbering)
heavy: B9 heavy with M254Y, T258E, A259P, D272F, N327G, L430I
light: not shown
notes: as for B10

- Kd [13]: 320 nM
B13: IgG1-F936 (antibody, name in EU numbering)
heavy: B9 heavy with G239R, P240D, K241S, T252V, M254Y, A259P, P310V, L430M
light: not shown

- Kd [13]: 330 nM
B15: IgG1-F919 (antibody, name in EU numbering)
heavy: B9 heavy with K241S, M254Y, A259P, D282G, P310V, N386A, N391A, L430M
light: not shown

- Kd [14]: 130 nM
B17: IgG1-F421 (antibody, name in EU numbering)
heavy: B9 heavy with K241S, M254Y, A259P, T309A, P310V, Q313H, L430A
light: not shown
notes: as for B10

- Kd [13]: 29 nM
B18: IgG1-F928 (antibody, name in EU numbering)
heavy: B9 heavy with K241S, M254Y, A259P, T309Q, P310V, Q313A, L430M, Y438I
light: not shown

- Kd [14]: 160 nM
B19: IgG1-F419 (antibody, name in EU numbering)
heavy: B9 heavy with K241S, M254Y, A259P, T309A, P310V, Q313H, K362H, L430M
light: not shown
notes: as for B10

- Kd [14]: 20 nM
B20: IgG1-F434 (antibody, name in EU numbering)
heavy: B9 heavy with K241S, A259V, T309Q, P310V, Q313A, N327G, L430Y
light: not shown
notes: as for B10

- Kd [10]: 4.4 nM
B21: IgG1-F398 (antibody, name in EU numbering)
heavy: B9 heavy with M254Y, A259P, D272F, N288E, T309Q, Q313A, L430I
light: not shown
notes: as for B10

- Kd [13]: 12 nM
B22: IgG1-F941 (antibody, name in EU numbering)
heavy: B9 heavy with K241S, M254Y, A259P, N288E, T309Q, P310V, Q313A, L430M, Y438V
light: not shown

- Kd [10]: 12 nM
B25: IgG1-F393 (antibody, name in EU numbering)
heavy: B9 heavy with M254Y, A259P, N288E, L430M
light: not shown
notes: as for B10

More lines, now with the values behind:

B1: IL6R-BF648/IL6R-L (antibody, human IgG1)
heavy: not shown
light: DIQMTQSPSSLSASVGDRVTITCRASQDISSYLNWYQQKPGKAPKLLIYYTSRLHSGVPSRFSGSGSGTDFTFTISSLQPEDIATYYCQQGNTLPYTFGQGTKVEIK
notes: IL6R-B3 with P238D; copies: 2 + 2
- KD (IIaH)/KD (IIb) [1]: 33.9
- Kd [2]: 1500 nM
- KD (IIaR)/KD (IIb) [3]: 13

B2: IL6R-BP082/IL6R-L (antibody, human IgG1)
heavy: B9 heavy with E235D, P240D, K241S, A259P, P310V, A332K, L430M, Y436N, K441E
light: B1 light
notes: copies: 2 + 2
- KD(IIb) of the parent polypeptide/KD(IIb) of the altered polypeptide [4]: 5.6
- KD (IIaH)/KD (IIb) [1]: 69
- Kd [2]: 1200 nM
- KD (IIaR)/KD (IIb) [3]: 22.5

B3: IL6R-BP209/IL6R-L (antibody, human IgG1)
heavy: QVQLQESGPGLVKPSETLSLTCAVSGHSISHDHAWSWVRQPPGEGLEWIGFISYSGITNYNPSLQGRVTISRDNSKNTLYLQMNSLRAEDTAVYYCARSLARTTAMDYWGEGTLVTVSSASTKGPSVFPLAPSSKSTSGGTAALGCLVKDYFPEPVTVSWNSGALTSGVHTFPAVLQSSGLYSLSSVVTVPSSSLGTQTYICNVNHKPSNTKVDKKVEPKSCDKTHTCPPCPAPELLGDDSVFLFPPKPKDTLMISRTPEVTCVVVDVSDEDGEVKFNWYVDGVEVHNAKTKPREEQYNSTYRVVSVLTVLHQDWLNGKEYKCKVSNAALPRPIEKTISKAKGQPREPQVYTLPPSRDELTKNQVSLTCLVKGFYPSDIAVEWESNGQPENNYKTTPPVLDSDGSFFLYSKLTVDKSRWQQGNVFSCSVMHEALHNHYTQESLSLSP
light: B1 light
notes: Anti-human IL-6 receptor IgG1 Fc variant
- Kd [5]: 41000 nM
- Kd [6]: 5100 nM
- KD(IIb) of the parent polypeptide/KD(IIb) of the altered polypeptide [7]: 80.4 fold

B4: IL6R-BP208/IL6R-L (antibody, human IgG1)
heavy: B3 heavy with E235D, A328K
light: B1 light
notes: as for B3
- Kd [5]: 55000 nM
- Kd [8]: 8300 nM

B5: IL6R-BP213/IL6R-L (antibody, human IgG1)
heavy: B3 heavy with E235D, D239G, A328K
light: B1 light
notes: as for B3
- Kd [5]: 63000 nM
- Kd [6]: 160 nM
- KD(IIb) of the parent polypeptide/KD(IIb) of the altered polypeptide [7]: 17.5 fold

B6: IL6R-BP212/IL6R-L (antibody, human IgG1)
heavy: B3 heavy with E235D, D239G, Y298D, A328K
light: B1 light
notes: as for B3
- Kd [8]: 2200 nM
- KD(IIb) of the parent polypeptide/KD(IIb) of the altered polypeptide [7]: 16.7 fold

B7: IL6R-BP129/IL6R-L (antibody, human IgG1)
heavy: B3 heavy with E235D, D239G, D270H, G273P, Y298D, A328K, R332K
light: B1 light
notes: copies: 2 + 2
- KD(IIb) of the parent polypeptide/KD(IIb) of the altered polypeptide [4]: 8
- KD (IIaH)/KD (IIb) [1]: 77.5
- Kd [2]: 1500 nM
- KD (IIaR)/KD (IIb) [3]: 29.3

B8: IL6R-BP205/IL6R-L (antibody, human IgG1)
heavy: B3 heavy with E235D, D239G, D270H, Y298D, A328K
light: B1 light
notes: as for B3
- Kd [5]: 65000 nM
- Kd [8]: 26000 nM

B12: IgG1-F281 (antibody, name in EU numbering)
heavy: B9 heavy with K241S, M254Y, A259P, E384A, L430F
light: not shown
notes: as for B10
- Kd [12]: 92 nM

B14: IgG1-F327 (antibody, name in EU numbering)
heavy: B9 heavy with M254Y, T258E, A259P, D272F, T309Q, P310V, Q313A, L430M
light: not shown
notes: as for B10
- Kd [11]: 65 nM

B16: IgG1-F271 (antibody, name in EU numbering)
heavy: B9 heavy with K241S, M254Y, A259P, P310V, D378A, L430F
light: not shown
notes: as for B10
- Kd [12]: 690 nM

B23: IgG1-F276 (antibody, name in EU numbering)
heavy: B9 heavy with K241S, M254Y, A259P, D272F, E384A, L430M
light: not shown
notes: as for B10
- Kd [12]: 41 nM

B24: IgG1-F273 (antibody, name in EU numbering)
heavy: B9 heavy with K241S, M254Y, A259P, P310V, E384A, L430F
light: not shown
notes: as for B10
- Kd [12]: 650 nM

B26: IgG1-F329 (antibody, name in EU numbering)
heavy: B9 heavy with M254Y, A259P, D272F, N288E, L430M
light: not shown
notes: as for B10
- Kd [11]: 12 nM
